Experiment in all cases: cell_activity
Series [1] relates to TAL1-Tet1-CD (TAL effector repeat array to KLF4 site 1, Gly3Ser linker, Tet1 catalytic domain). The conditions noted are these: CpG demethylation 15 bp downstream of site (32.5% at 9 bp); K562 cells, bisulfite sequencing.
For series [2], the system named is TAL3-Tet1-CD (KLF4 site 3). Conditions: CpG demethylation at 22, 36, 116 and 143 bp downstream; K562 cells.
In series [3] the test system is TAL2-Tet1-CD (KLF4 site 2). The conditions noted are these: CpG demethylation 17 bp downstream (28.2% at 27 bp, none at 1 and 3 bp); K562 cells.
The test system of series [4] is KLF4 six-finger ZF-Tet1 fusion (engineered). Conditions: CpG demethylation 6 bp downstream (25% at 24 bp); K562 cells; one of two KLF4 ZF-Tet1 proteins.
Series [5] concerns TAL4-Tet1-CD (KLF4 site 4). Conditions: CpG demethylation 13 bp downstream, no other CpGs significant; K562 cells.

Where only a bound is given, the exact number is not on record here.

In the case of “GGGGGCGGGCGGAGCCTTGGGGTCACCAAGAGCCACTGAACGAGGGTAAGGAGCGGCCACCGCGCGGACTCCGCAACCTTCCCGGGATAGCTTCCGTGTCCTTGGCTCAGCTGTGTATGCCCGTGGTGCGAGCACTGCGGAGCCGCCTGGGGCGCAAGCCGGGTCTTCACCAGTCCCCGGGCGCGCTGTCGGTAGGGCGGGCGCTCTCGGGCCACCGGGCGGGAGGTGGCCGCGTCCCCAGACACTGGCTGGGCCAGAGTGAGTTTAGCGCGTAGGCGGC (double strand) [KLF4 intron 1-2 TAL site 1]”, the activity in series [1] worked out at 45.4%.
Substance “GGGGGCGGGCGGAGCCTTGGGGTCACCAAGAGCCACTGAACGAGGGTAAGGAGCGGCCACCGCGCGGACTCCGCAACCTTCCCGGGATAGCTTCCGTGTCCTTGGCTCAGCTGTGTATGCCCGTGGTGCGAGCACTGCGGAGCCGCCTGGGGCGCAAGCCGGGTCTTCACCAGTCCCCGGGCGCGCTGTCGGTAGGGCGGGCGCTCTCGGGCCACCGGGCGGGAGGTGGCCGCGTCCCCAGACACTGGCTGGGCCAGAGTGAGTTTAGCGCGTAGGCGGC (double strand) [KLF4 intron 1-2 TAL site 3]” gave an activity in series [2] of more than 25%.
Turning to “GGGGGCGGGCGGAGCCTTGGGGTCACCAAGAGCCACTGAACGAGGGTAAGGAGCGGCCACCGCGCGGACTCCGCAACCTTCCCGGGATAGCTTCCGTGTCCTTGGCTCAGCTGTGTATGCCCGTGGTGCGAGCACTGCGGAGCCGCCTGGGGCGCAAGCCGGGTCTTCACCAGTCCCCGGGCGCGCTGTCGGTAGGGCGGGCGCTCTCGGGCCACCGGGCGGGAGGTGGCCGCGTCCCCAGACACTGGCTGGGCCAGAGTGAGTTTAGCGCGTAGGCGGC (double strand) [KLF4 intron 1-2 TAL site 2]”, the activity in series [3] was found to be 36.5%.
Regarding KLF4 locus ZF site, the activity in series [4] turned out to be 68%.
“GGGGGCGGGCGGAGCCTTGGGGTCACCAAGAGCCACTGAACGAGGGTAAGGAGCGGCCACCGCGCGGACTCCGCAACCTTCCCGGGATAGCTTCCGTGTCCTTGGCTCAGCTGTGTATGCCCGTGGTGCGAGCACTGCGGAGCCGCCTGGGGCGCAAGCCGGGTCTTCACCAGTCCCCGGGCGCGCTGTCGGTAGGGCGGGCGCTCTCGGGCCACCGGGCGGGAGGTGGCCGCGTCCCCAGACACTGGCTGGGCCAGAGTGAGTTTAGCGCGTAGGCGGC (double strand) [KLF4 intron 1-2 TAL site 4]” came in with an activity in series [5] of 37%.

These data come from patent US20210155907.
